# Data published in patent publication US10139419B2, “Methods for detecting Aβ oligomers” (SYSTEM OF SYSTEMS ANALYTICS, INC., priority 2014, dated 2018).
# Bridge positions count the residues as written; N and C are the ends. Square brackets hold non-standard residues; d marks the D form. Ends that are not written are not given here. * marks the point of attachment. FITC = O=C1OC2(c3ccc(O)cc3Oc3cc(O)ccc32)c2ccc(NC(=S)*)cc21; Ahx = NCCCCCC(=O)O
# How the values were obtained:
# Aβ42 oligomer [1] = target: T1, Aβ42 oligomer (Homo sapiens, UniProt P05067); assay: Fluorescent anisotropy versus Aβ42 oligomer concentration; type: binding
# synthetic Aβ oligomer = target: T2, synthetic Aβ oligomer (Homo sapiens, UniProt P05067); assay: Fluorescence detection assay of synthetic Aβ oligomer spiked into human CSF; type: binding; details: 10 mM HEPES pH 7.0; 0.005% NP-40; 10% normal human cerebrospinal fluid; 70 nM pyrenated peptide; 37° C.
# T2 construct: The monomers can comprise one or more of Aβ3-42, Aβ37, Aβ38, Aβ39, Aβ40 and Aβ42; host or cells: synthetic peptide oligomer
# Procedure: Samples of CSF from a normal human subject are spiked with different concentrations of synthetic Aβ oligomer, and subjected to fluorescence detection assay using peptide probe AD315 (SEQ ID NO:65). The detection is performed in an assay with the following conditions: 10 mM HEPES buffer at pH 7.0; 0.005% NP-40; 10% normal human cerebrospinal fluid; 70 nM pyrenated peptide; and 37° C. incubation.
# Aβ42 oligomer [2] = target: T1, Aβ42 oligomer; assay: Streptavidin bead binding assay with gel electrophoresis detection; details: column 4
# Procedure: An assay is performed to analyze peptide probe binding to Aβ42 oligomer. The peptide probe is the same as the probe in EXAMPLE 8. Five samples are analyzed: (1) Aβ42 biotinylated oligomer as a positive control; (2) Aβ42 biotinylated oligomer bound to a bead via streptavidin; (3) peptide positive control; (4) peptide probe bound to Aβ42 biotinylated oligomer bound to a bead via streptavidin; and (5) peptide probe bound to a bead via streptavidin. Detection was by gel electrophoresis.
# Aβ oligomer [3] = target: T3, Aβ oligomer (Homo sapiens, UniProt P05067); assay: Peptide Linked Immunosorbent Assay (PLISA) compared with ELISA; type: binding; details: ELISA with Aβ antibody 6E10 labeled with horse radish peroxidase
# Text: FIG. 7 depicts different formats for a PLISA as described herein. PLISA (A) depicts a sandwich format in which a target oligomer, such as an Aβ oligomer (SDS Oligo), binds to both surface-bound peptide probe (peptide) and peptide probe tagged with a label (Tag). The complex is detected using a labeled antibody (Anti-TagAb-label). PLISA (B) depicts a sandwich format in which the peptide probe tagged with a label is replaced by a labeled antibody (Ab-label) specific to the Aβ oligomer. PLISA (C) depicts a sandwich format in which the surface-bound peptide probe is replaced with an antibody specific to the Aβ oligomer (Ab-6E10). PLISA (D) depicts a competitive format in which Aβ oligomer in a biological sample competes with surface-bound Aβ oligomer for a labeled peptide probe. Each of PLISA (A)-(D) can use a solid-phase format (shown here as a bead, in which the bead is passed through an apparatus for detecting the labels).
# Different concentrations of Aβ oligomer in solution are subjected to both PLISA and ELISA to determine the sensitivity of each assay, as measured by dose response curves. For the PLISA assay, the peptide probe used is AD317 (SEQ ID NO:41). For the ELSIA, the antibody used is Aβ antibody 6E10 labeled with horse radish peroxidase. […]
# Aβ oligomer [4] = target: T3, Aβ oligomer; assay: PLISA using PEP-11 peptide probes on Aβ monomer, oligomer and fiber; type: binding
# Text: PEP-11ds is also represented by SEQ ID NO:64, but has a disulfide bridge at the two cysteines.
# T3 sequence (P05067 672-713 limits assumed): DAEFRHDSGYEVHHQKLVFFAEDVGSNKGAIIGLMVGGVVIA
# T1 sequence (P05067 672-713 limits assumed): as above
# T2 sequence (P05067 672-713 limits assumed): as above
substance,measurement,setting,value
"AD315: Salt bridge at G29H and G33E; PBA and NH2 additions; pyrenated peptide (KLVFFAEDVGSNKHAIIELMK-NH2; not fully specified (N-terminus); also: PBA addition, pyrene label)",fluorescent anisotropy (milli-r) as a function of Aβ42 oligomer concentration (nN),Aβ42 oligomer [1],decreases as oligomer concentration increases
same,fluorescence response to synthetic Aβ oligomer concentration,synthetic Aβ oligomer,"linear, dose-dependent curve"
same,binding of peptide probe to bead-bound Aβ42 biotinylated oligomer,Aβ42 oligomer [2],can be used to detect Aβ42 oligomer
"AD317: P22, biotin labeled with thrombin site linker, at C-terminus (KLVFFAEDVGSNKHAIIELMKGLVPRGSGK; not fully specified (residue 30, C-terminus); also: biotin label at C-terminus via thrombin site linker, attachment place not given here)","sensitivity for detecting Aβ oligomer, PLISA vs ELISA (dose response curves)",Aβ oligomer [3],more sensitive assay for detecting Aβ oligomer than the ELISA
"Pep11-a: consists of SEQ ID NO:64, at a purity of 86% (standard) ({FITC}-[Ahx]CLVFFAEDVGSNKGAIIGLMC[dR][dR]; not fully specified; cysteine pairing not given here)",preferential detection/binding of Aβ oligomer as compared to Aβ monomer or fiber,Aβ oligomer [4],preferentially detect Aβ oligomer
"Pep11-b: consists of SEQ ID NO:64, at a purity of 95% (high) ({FITC}-[Ahx]CLVFFAEDVGSNKGAIIGLMC[dR][dR]; not fully specified; cysteine pairing not given here)",preferential detection/binding of Aβ oligomer as compared to Aβ monomer or fiber,Aβ oligomer [4],preferentially detect Aβ oligomer
"Pep11-ds: represented by SEQ ID NO:64, but has a disulfide bridge at the two cysteines ({FITC}-[Ahx]CLVFFAEDVGSNKGAIIGLMC[dR][dR]; disulfide 2-22; not fully specified)",preferential detection/binding of Aβ oligomer as compared to Aβ monomer or fiber,Aβ oligomer [4],preferentially detect Aβ oligomer
